{
  "source": "patent US20250188194A1",
  "about": "“Method of treatment” (Nucleus Therapeutics Pty Ltd, priority 2021, published 2025)",
  "molecules": {"B1": {"name": "DX1: 3E10 derivative, a di-scFv having the sequence SEQ ID NO: 38; nuclear-penetrating anti-DNA binding protein (protein)", "scFv": "DIQMTQSPSSLSASLGDRATITCRASKTVSTSSYSYMHWYQQKPGQPPKLLIKYASYLESGVPSRFSGSGSGTDFTLTISSLQPEDAATYYCQHSREFPWTFGGGTKVEIKTVDAAPGGGGSGGGGSGGGGSEVQLVESGGGLVQPGGSLRLSCAASGFTFSNYGMHWVRQAPGKGLEWVSYISSGSSTIYYADSVKGRFTISRDNAKNSLYLQMNSLRAEDTAVYYCARRGLLLDYWGQGTTVTVSSASTKGPSVFPLAPLESTGSDIQMTQSPSSLSASLGDRATITCRASKTVSTSSYSYMHWYQQKPGQPPKLLIKYASYLESGVPSRFSGSGSGTDFTLTISSLQPEDAATYYCQHSREFPWTFGGGTKVEIKTVDAAPGGGGSGGGGSGGGGSEVQLVESGGGLVQPGGSLRLSCAASGFTFSNYGMHWVRQAPGKGLEWVSYISSGSSTIYYADSVKGRFTISRDNAKNSLYLQMNSLRAEDTAVYYCARRGLLLDYWGQGTTVTVSS", "modifications": "DX1 sequence"}},
  "key": {"[1]": {"test_system": "differentiated PLB-985 cells", "test": "Quantifying extracellular DNA by SYTOX Green stain after PMA stimulation", "type": "cell-based, human", "settings": "one hour pre-treatment with 10 μM DX1, 300 nM PMA two hours, plate reader; N=3", "protocol": "FIGS. 2A-2D. DAPI and SYTOX™ Green stains support the conclusion that DX1inhibits chromatin decondensation and DNA release by differentiated PLB-985 cells stimulated with PMA. (2A) Chromatin decondensation in differentiated PLB-985 cells after stimulation with PMA±a one hour pre-treatment with 10 μM DX1 was visualized by DAPI stain. Left panel: Control cells with decondensed DAPI stain after PMA stimulation. Right panel: DX1-treated cells retaining condensed DAPI signal after PMA stimulation. Bar: 25 μm. (2B) Quantification of the percentage of differentiated PLB-985 cells with decondensed DAPI stain after PMA stimulation. […] (2C) DNA release by differentiated PLB-985 cells after stimulation with PMA±a one hour pre-treatment with 10 μM DX1 was visualized by addition of the impermeant DNA stain SYTOX™ Green. Representative images are shown. Bar: 25 μm. (2D) SYTOX™ Green signal in wells containing differentiated PLB-985 cells stimulated with PMA±a one hour pre-treatment with 10 […] was quantified by plate reader. […]\nSYTOX™ Green is an impermeant fluorescent DNA stain that facilitates visualization of DNA released in NETosis. Differentiated PLB-985 cells treated with control or 10 μM DX1 and stimulated with PMA were exposed to SYTOX™ Green, and fluorescence was visualized under fluorescence microscopy and quantified by plate reader. […]"}, "mouse neutrophils": {"test_system": "mouse neutrophils", "test": "Mouse neutrophils NETosis visualization (MPO, H3Cit, PAD4 immunostaining)", "type": "cell-based", "settings": "10 μM DX1 30 minutes, N=4", "protocol": "Neutrophils obtained from thioglycollate-treated mice and directly plated onto 20-well plates were treated with control media or media containing 10 μM DX1 for 30 minutes, and then observed for four hours, after which cells were fixed and immunostained for markers of NETs including myeloperoxidase (MPO), H3Cit, and peptidylarginine deiminase 4 (PAD4). The percentage of NETs released per 100 cells was determined by visualization on confocal microscopy and analyzed by ImageJ (NIH).\nNeutrophils obtained from thioglycollate-treated mice and directly plated onto 20-well plates were treated with control media or media containing 10 μM DX1 for 30 minutes, and then stimulated with PMA for induction of NOX-dependent NETosis for four hours, after which cells were fixed and immunostained for markers of NETs including MPO, H3Cit, and PAD4. The percentage of NETs released per 100 cells was determined by visualization on confocal fluorescence microscopy and analyzed by ImageJ (NIH). […]\nNeutrophils obtained from thioglycollate-treated mice and directly plated onto 20-well plates were treated with control media or media containing 10 μM DX1 for 30 minutes, and then stimulated with a calcium ionophore (ionomycin, IM) for induction of NOX-independent NETosis for four hours, after which cells were fixed and immunostained for markers of NETs including MPO, H3Cit, and PAD4. The percentage of NETs released per 100 cells was determined by visualization on confocal fluorescence microscopy and analyzed by ImageJ (NIH).\nAll mouse work was conducted under a protocol approved by Monash University's Animal Ethics Committee. […] Cells were fixed in periodate-lysine-paraformaldehyde (PLP) overnight, immunostained for markers of NETs including myeloperoxidase (MPO, #AF3667 R&D Systems, MN, USA), H3Cit, and PAD4 (#AB128086, abcam), mounted in DAPI ProLong™ Gold (Molecular Probes, Thermo Fisher Scientific) and NETs were visualized by confocal fluorescence microscopy with a Nikon Ti-E inverted microscope (Nikon Instruments Inc, Melville, NY, USA). […]"}},
  "data": [
    {"molecule": "B1", "values": [
      {"measurement": "SYTOX Green signal relative to control", "setting": "[1]", "value": "0.40±0.01"},
      {"measurement": "percentage of NETs, unstimulated neutrophils", "setting": "mouse neutrophils; no stimulus, four hours, control 3.5%±1.0", "value": "4.0%±1.5"},
      {"measurement": "percentage of NETs, ionomycin (IM) stimulation (NOX-independent NETosis)", "setting": "mouse neutrophils; then IM 4 μM four hours, control 15.5%±3.1", "value": "2.3%±0.8"},
      {"measurement": "percentage of NETs, PMA stimulation (NOX-dependent NETosis)", "setting": "mouse neutrophils; then PMA four hours, control 36.3%±11.1", "value": "8.3%±2.7"}
    ]}
  ]
}
